Laboratory results taken from patent US20220119534A1 (DRAGONFLY THERAPEUTICS, published 2022).

Assays:
Human CLEC12A-His [1] = target: T1, Human CLEC12A-His (human, UniProt Q5QGZ9 65-265); experiment: SPR Biacore 8K 37 C; TriNKET captured on anti-hFc chip, hCLEC12A-His as analyte; 1:1 fit; control, n=4
T1 construct: Recombinant soluble protein made in house (Dragonfly Tx); The hCLEC12A spot of the HuProt array is written under this molecule as well; also called hCLEC12A-His; hCLEC12A; not shown: His tag
T1 sequence: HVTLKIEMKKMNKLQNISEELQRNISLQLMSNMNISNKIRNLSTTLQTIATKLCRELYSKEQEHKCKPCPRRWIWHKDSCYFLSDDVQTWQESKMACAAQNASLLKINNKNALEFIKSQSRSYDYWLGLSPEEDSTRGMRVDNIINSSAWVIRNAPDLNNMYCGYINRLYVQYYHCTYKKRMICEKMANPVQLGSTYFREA

mFc-hNKG2D = target: T2, mFc-hNKG2D (human, UniProt P26718 73-216); experiment: SPR Biacore 8K 37 C; mFc-hNKG2D captured on anti-mFc chip, TriNKET as analyte; steady state fit; after 4 wks 40 C in CST pH 7.0, n=3
T2 construct: extracellular domain; Made in house (Dragonfly Tx); the order of tag and ECD follows the name mFc-hNKG2D; also called mFc-tagged human NKG2D; not shown: mouse Fc tag
T2 sequence (looked up): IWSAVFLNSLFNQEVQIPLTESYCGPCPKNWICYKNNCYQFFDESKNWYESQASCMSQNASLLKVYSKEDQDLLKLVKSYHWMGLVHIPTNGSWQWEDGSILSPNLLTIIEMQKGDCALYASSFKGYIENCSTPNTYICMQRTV

Human CLEC12A-His [2] = target: T1, Human CLEC12A-His; experiment: SPR Biacore 8K 37 C; TriNKET captured on anti-hFc chip, hCLEC12A-His as analyte; 1:1 fit; after low pH hold (pH 3.3, 1.5 h), n=4
Human CLEC12A-His [3] = target: T1, Human CLEC12A-His; experiment: SPR Biacore 8K 37 C; TriNKET captured on anti-hFc chip, hCLEC12A-His as analyte; 1:1 fit; after 2 wks 40 C at pH 5.0, n=2

Kd (Human CLEC12A-His [1]): 0.638 nM
koff (Human CLEC12A-His [1]): 0.000433 s⁻¹
kon (Human CLEC12A-His [1]): 678000 M⁻¹ s⁻¹
Kd (mFc-hNKG2D): 711 nM
Kd (Human CLEC12A-His [2]): 0.644 nM
kon (Human CLEC12A-His [2]): 715000 M⁻¹ s⁻¹
Kd (Human CLEC12A-His [3]): 1.01 nM
koff (Human CLEC12A-His [3]): 0.000871 s⁻¹
kon (Human CLEC12A-His [3]): 865000 M⁻¹ s⁻¹
B1: F3'-1602 TriNKET (bispecific antibody, human IgG1, kappa)
chain: QLQLQESGPGLVKPSETLSLTCTVSGFSLTNYGLHWIRQPPGKCLEWIGVIWSGGKTDYNPSLKSRVTISKDTSKNQFSLKLSSVQAADTAVYYCAKYDYDDSLDYWGQGTLVTVSSGGGGSGGGGSGGGGSGGGGSDIQMTQSPSSLSASVGDRVTITCHASQNINFWLSWYQQKPGKAPKLLIYEASNLHTGVPSRFSGSGSGTRFTLTISSLQPEDIATYYCQQSHSYPLTFGCGTKLEIKGSDKTHTCPPCPAPELLGGPSVFLFPPKPKDTLMISRTPEVTCVVVDVSHEDPEVKFNWYVDGVEVHNAKTKPREEQYNSTYRVVSVLTVLHQDWLNGKEYKCKVSNKALPAPIEKTISKAKGQPREPRVYTLPPCRDELTKNQVSLTCLVKGFYPSDIAVEWESNGQPENNYKTTPPVLVSDGSFTLYSKLTVDKSRWQQGNVFSCSVMHEALHNHYTQKSLSLSPG
heavy: EVQLVESGGGLVKPGGSLRLSCAASGFTFSSYSMNWVRQAPGKGLEWVSSISSSSSYIYYADSVKGRFTISRDNAKNSLYLQMNSLRAEDTAVYYCARGAPIGAAAGWFDPWGQGTLVTVSSASTKGPSVFPLAPSSKSTSGGTAALGCLVKDYFPEPVTVSWNSGALTSGVHTFPAVLQSSGLYSLSSVVTVPSSSLGTQTYICNVNHKPSNTKVDKKVEPKSCDKTHTCPPCPAPELLGGPSVFLFPPKPKDTLMISRTPEVTCVVVDVSHEDPEVKFNWYVDGVEVHNAKTKPREEQYNSTYRVVSVLTVLHQDWLNGKEYKCKVSNKALPAPIEKTISKAKGQPREPQVCTLPPSRDELTENQVSLTCLVKGFYPSDIAVEWESNGQPENNYKTTPPVLDSDGSFFLYSWLTVDKSRWQQGNVFSCSVMHEALHNHYTQKSLSLSPG
light: DIQMTQSPSSVSASVGDRVTITCRASQGISSWLAWYQQKPGKAPKLLIYAASSLQSGVPSRFSGSGSGTDFTLTISSLQPEDFATYYCQQGVSFPRTFGGGTKVEIKRTVAAPSVFIFPPSDEQLKSGTASVVCLLNNFYPREAKVQWKVDNALQSGNSQESVTEQDSKDSTYSLSSTLTLSKADYEKHKVYACEVTHQGLSSPVTKSFNRGEC
notes: Trispecific F3' format: CLEC12A scFv-Fc paired with NKG2D Fab-Fc; Stressed and control samples of the stability studies are the same molecule; also called AB0237
